Patent publication US20240294611A1 (University of Texas, published 2024)

Target: SARS-CoV spike without stabilizing modifications on pseudovirus (SARS-CoV, UniProt P59594 14-1255)
Assay: cell-based or functional assay

B1: 3A3 full-length antibody (mouse variable region-human IgG1 constant region chimera) (antibody, V domains shown)
VH: QVQLQQSGAELLKPGASVKLSCTASGFNIKDTYIHWLKQRPEQGLEWIGRIGPAIGNTIYAPKFQGKATITTDTSSNTAYLQLSSLTSEDTAVYYCARYYGSSYYYFDYWGQGTTLTVSS
VL: DIVMTQSAPSVPVTPGESVSISCRSSKSLLHSNGNTYLYWFLQRPGQSPQLLIYRMSNLASGVPDRFSGSGSGTAFTLRISRVEAEDVGVYYCMQYLEYPLTFGAGTKLELKR
  Pseudovirus IC50: 188 nM
